From article PMC4175335, “Thiosulfate Transfer Mediated by DsrE/TusA Homologs from Acidothermophilic Sulfur-oxidizing Archaeon Metallosphaera cuprina*” (The Journal of Biological Chemistry, 2014)
Blank lines part the entries; values can stand above or below the molecule they belong to.

B1: DsrE3A (Mcup_0681) of Metallosphaera cuprina Ar-4, N-terminally His-tagged (natural protein, UniProt F4G1H3 1-133, looked up)
chain: MAQTQTEQAQEEQKKKILIVVTHGPEDLDRTYAPLFMASISASMEYETSVFFMIKGPLLLSKKWQEDERKKGGNPFIHFFDMAKDNNVKMYVCVQSLKDMCHMNESDVVDGIELVGGSTLIDLTLDADRTLFF
notes: DsrE3A, locus Mcup_0681, Metallosphaera cuprina Ar-4; gene amplified from genomic DNA into pET15b; theoretical mass with His tag 17,697 Da; Homotrimer by gel filtration
B2: TusA (Mcup_0683) of Metallosphaera cuprina Ar-4, N-terminally His-tagged (natural protein, UniProt F4G1H5 1-80, looked up)
chain: MAQDVKITKTLDVKGMYCPGPVMETAKAIKQINVGEVLEVLATDPAAKPDIEAWARRTGNQILDIQQQGGVTRILVKRAK
notes: TusA, locus Mcup_0683, Metallosphaera cuprina Ar-4; gene amplified from genomic DNA into pET15b; theoretical mass with His tag 10,895 Da; Occurs as monomers and dimers

What was measured:
[1] = biological target: DsrE3A-C93S with His-tag (Metallosphaera cuprina Ar-4); experiment: SEC; oligomerization analysis, data not shown; proteins incubated with or without 25 μM TCEP at room temperature for 1 h; HiLoad 16/60 Superdex 75; 50 mM Tris-HCl (pH 7.5), 150 mM KCl; 0.5 ml/min
[2] = biological target: DsrE3A-C93S/C101S with His-tag (Metallosphaera cuprina Ar-4); experiment: as above
[3] = biological target: DsrE3A-C101S with His-tag (Metallosphaera cuprina Ar-4); experiment: as above
[4] = biological target: the molecule itself; experiment: as above
[5] = biological target: B1; experiment: SPR; Biacore 3000, CM5 chip, 25 °C; DsrE3A covalently immobilised (about 1500 RU); TusA as analyte in PBST (PBS, 0.005% Tween 20, pH 7.4), 30 μl/min, 2 min injection, 8 min dissociation; details: both partners purified

- stoichiometry N [1]: 3
Molecule: DsrE3A-C93S with His-tag (natural protein)

- stoichiometry N [2]: 3
Molecule: DsrE3A-C93S/C101S with His-tag (natural protein)

- stoichiometry N [3]: 3
Molecule: DsrE3A-C101S with His-tag (natural protein)

Molecule: B1
- stoichiometry N [4]: 3

Molecule: B2
- stoichiometry N [4]: 2
- Kd [5]: 100 pM
